We go through 1 molecule from article PMC8041770, “An engineered ligand trap inhibits leukemia inhibitory factor as pancreatic cancer treatment strategy” (Communications Biology, 2021).

The target of the assay is yeast-displayed mouse LIF (mLIF, Ser24 to Phe203) (mouse, UniProt P09056 24-203). The assay is described as follows: flow cytometry on cells; LIF displayed on yeast (EBY100), soluble Fc fusion titrated in PBS with 1 mg/ml BSA, Fc detected with fluorescent secondary antibody; apparent Kd by non-linear regression. The conditions noted are these: one partner purified. For orientation: In flow cytometry, cells or beads pass a laser one at a time.

B1: mLIFR-Fc (mouse LIFR CBM I–Ig-like–CBM II fused to an antibody Fc domain) (Fc fusion)
chain: LKRGVQDLKCTTNNMRVWDCTWPAPLGVSPGTVKDICIKDRFHSCHPLETTNVKIPALSPGDHEVTINYLNGFQSKFTLNEKDVSLIPETPEILDLSADFFTSSLLLKWNDRGSALPHPSNATWEIKVLQNPRTEPVALVLLNTMLSGKDTVQHWNWTSDLPLQCATHSVSIRWHIDSPHFSGYKEWSDWSPLKNISWIRNTETNVFPQDKVVLAGSNMTICCMSPTKVLSGQIGNTLRPLIHLYGQTVAIHILNIPVSENSGTNIIFITDDDVYGTVVFAGYPPDVPQKLSCETHDLKEIICSWNPGRITGLVGPRNTEYTLFESISGKSAVFHRIEGLTNETYRLGVQMHPGQEIHNFTLTGRNPLGQAQSAVVINVTERVAPHDPTSLKVKDINSTVVTFSWYLPGNFTKINLLCQIEICKANSKKEVRNATIRGAEDSTYHVAVDKLNPYTAYTFRVRCSSKTFWKWSRWSDEKRHLTTEAT
notes: signal peptide in the construct; mouse LIF receptor (mLIFR), three most N-terminal extracellular domains CBM I–Ig-like–CBM II, Met1 to Thr529; also called soluble mLIFR-Fc; mLIFR mIgG2a Fc; source: Expi293F, transfected (pAdd2), purified from medium (Protein-A Sepharose)
As for B1, the Kd is 0.16 ± 0.02 nM.
